This passage reports binding result, IC50 and inhibition ratio results from US20030088075A1 (Kyowa Kirin, published 2003).

A word on the IC50: it is the concentration at which inhibition is half-maximal.

The labels stand for the following.
B1: anti-human VEGF receptor Flt-1 mouse monoclonal antibody KM1750 (antibody, mouse IgG2b, V domains shown)
VH: QAFLQQSGAELVRPGASVKMSCKASGYTFINYNMHWVKQTPRQGLEWIGAIFPGNGFTSYNQKFKGKATLTVDKSSSTVYMQLRSLTSEDSAVYFCARDGDYYFDYWGQGTTLTVSS
VL: QIVLTQSPAIMSASLGEEITLTCSASSSVSYMHWYQQKSGTSPKLLIYRTSNLASGVPFRFSGSGSGTFYSLTISSVEAEDAADYYCHQWSMYTFGGGTKLEIK
notes: mouse IgG2b; hybridoma FERM BP-5700; Used labeled with biotin on HUVEC; also called biotinated KM1750
B2: anti-human VEGF receptor Flt-1 human chimeric antibody KM2550 (antibody, V domains shown)
VH: B1 VH
VL: B1 VL
notes: V regions of KM1750 joined to the human antibody C regions of vector pKANTEX93; IgG type; also called p42550 [sic]
B3: anti-human VEGF receptor Flt-1 mouse monoclonal antibody KM1732 (antibody, mouse IgG1, V domains shown)
VH: QGQMQQSGAELVKPGASVKLSCKPSGFTFSSNYISWLKQKPGQSLEWIAWIYAGTGDASYNQKFTAKAHVTVDTSSSTAYMQLSSLTTEDSAIYYCARHGGDGYWFAYWGQGTLVTVSA
VL: QLVLTQSPAIMSASQGEKVTMTCSASSSVSYMHWYQQKSGTSPKRWIYDTSKLPSGVPARFSGSGSGTSYSLTISSMEAEDAATYYCQQWSSNPPTFGAGTKLELK
notes: mouse IgG1; hybridoma FERM BP-5698
B4: anti-human VEGF receptor Flt-1 human chimeric antibody KM2532 (antibody, V domains shown)
VH: B3 VH
VL: B3 VL
notes: V regions of KM1732 joined to the human antibody C regions of vector pKANTEX93 (WO 97/10354); IgG type of about 150 kDa; Expressed in YB2/0 cells; also called p42532 [sic]
B5: anti-human VEGF receptor Flt-1 human CDR-grafted antibody KM8550 (antibody, V domains shown)
VH: QVQLVQSGAEVKKPGASVKVSCKASGYTFINYNMHWVRQAPGQGLEWMGAIFPGNGFTSYNQKFKGRVTITVDKSTSTAYMELSSLRSEDTAVYYCARDGDYYFDYWGQGTLVTVSS
VL: DIQMTQSPSSLSASVGDRVTITCSASSSVSYMHWYQQKPGKAPKLLIYRTSNLASGVPSRFSGSGSGTDFTLTISSLQPEDFATYYCHQWSMYTFGQGTKVEIK
notes: also called pKANTEX1750HV0LV0(I)
B6: anti-human VEGF receptor Flt-1 human CDR-grafted antibody KM8551 (antibody, V domains shown)
VH: B5 VH
VL: DIVMTQSPDSLAVSLGERATINCSASSSVSYMHWYQQKPGQPPKLLIYRTSNLASGVPDRFSGSGSGTDFTLTISSLQAEDVAVYYCHQWSMYTFGQGTKVEIK
notes: also called pKANTEX1750HV0LV0(IV)
B7: anti-human VEGF receptor Flt-1 human CDR-grafted antibody KM8552 (antibody, V domains shown)
VH: B5 VH with E82Q, S84R, Y95F
VL: B5 VL
notes: also called pKANTEX1750HV3LV0(I)
B8: anti-human VEGF receptor Flt-1 human CDR-grafted antibody KM8553 (antibody, V domains shown)
VH: B5 VH with E82Q, S84R, Y95F
VL: B6 VL
notes: also called pKANTEX1750HV3LV0(IV)
B9: anti-human VEGF receptor Flt-1 human CDR-grafted antibody KM8555 (antibody, V domains shown)
VH: B5 VH with E82Q, S84R, Y95F
VL: B5 VL with D17E, R18E, D69F, F70Y
notes: also called pKANTEX1750HV3LV4
B10: anti-human VEGF receptor Flt-1 human CDR-grafted antibody KM8554 (antibody, V domains shown)
VH: B5 VH
VL: B5 VL with D17E, R18E, D69F, F70Y
notes: also called pKANTEX1750HV0LV4

Numbering of substitutions follows the chain as printed.

One assay deals with T1, soluble human VEGF receptor KDR 7N (human, UniProt P35968 20-757).
T1 construct: range 20-757; Purity 70 to 80%; not shown: two amino acid residues derived from a linker
T1 sequence (P35968 20-757): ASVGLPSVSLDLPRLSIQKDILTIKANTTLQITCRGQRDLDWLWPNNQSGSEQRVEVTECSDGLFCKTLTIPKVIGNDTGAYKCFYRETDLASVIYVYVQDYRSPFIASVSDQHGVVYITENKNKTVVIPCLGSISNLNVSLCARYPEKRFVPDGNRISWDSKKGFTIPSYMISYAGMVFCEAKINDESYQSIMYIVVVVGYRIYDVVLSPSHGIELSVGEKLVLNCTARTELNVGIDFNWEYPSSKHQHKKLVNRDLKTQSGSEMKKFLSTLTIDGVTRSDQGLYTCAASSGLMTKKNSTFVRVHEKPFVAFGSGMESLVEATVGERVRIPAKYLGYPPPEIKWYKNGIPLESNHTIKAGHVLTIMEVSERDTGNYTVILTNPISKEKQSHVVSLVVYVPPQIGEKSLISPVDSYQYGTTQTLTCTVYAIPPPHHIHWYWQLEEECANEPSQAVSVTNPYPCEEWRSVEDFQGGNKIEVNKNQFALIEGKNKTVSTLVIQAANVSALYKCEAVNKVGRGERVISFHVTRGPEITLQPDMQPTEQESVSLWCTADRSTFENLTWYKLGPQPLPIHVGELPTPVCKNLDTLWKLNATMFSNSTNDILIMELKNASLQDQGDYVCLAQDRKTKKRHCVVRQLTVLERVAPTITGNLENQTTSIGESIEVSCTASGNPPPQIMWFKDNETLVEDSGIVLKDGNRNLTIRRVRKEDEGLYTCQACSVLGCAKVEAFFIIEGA
In words: ELISA, antigen coated at 4 µg/ml. Here is the method: First, the reactivity of anti-human VEGF receptor Fit-i mouse monoclonal antibodies KM1732 and KM1750 and anti-human VEGF receptor Flt-1 human chimeric antibodies KM2532 and KM2550 was compared using an immunoassay method. Each of Flt-1 7N, Flt-1 3N, Flt-1 2N, Flt-1 7N.K2 and KDR 7N diluted to 4 μg/ml with PBS was dispensed in 50 μl portions into wells of a 96 well plate for EIA (manufactured by Greiner) and allowed to stand overnight at 4° C. for its adsorption. After washing the plate with PBS, 100 μl of 1% BSA-PBS was added to each well, and the remaining active groups was blocked by carrying out the reaction at room temperature for 1 hour. After discarding 1% BSA-PBS, each of the purified anti-human VEGF receptor Flt-1 mouse monoclonal antibodies KM1732 and KM1750 or purified anti-human VEGF receptor Flt-1 human chimeric antibodies KM2532 and KM2550, having a concentration of from 0.1 μg/ml, was dispensed in 50 μl portions into the resulting wells to carry out the reaction at room temperature for 1 hour.
B1: the binding result was “no binding (tested: 0.1 µg/ml antibody)”.

B2: the binding result is listed as “no binding (tested: 0.1 µg/ml antibody)”.

B3: the binding result was “no binding (tested: 0.1 µg/ml antibody)”.

With B4, the binding result is given as “no binding (tested: 0.1 µg/ml antibody)”.

Another assay deals with T1, soluble human VEGF receptor KDR 7N. In words: enzyme immunoassay, antigen coated at 10 µg/ml. From the text:
Next, in order to examine binding specificity of anti-human VEGF receptor Flt-1 human CDR-grafted antibodies KM8550, KM8551, KM8552, KM8553, KM8554 and KM8555 and anti-human VEGF receptor Flt-1 human chimeric antibody KM2550, their reactivity for five soluble human VEGF receptor derivative proteins Flt-1 7N, Flt-1 3N, Flt-1 2N (WO 98/22616), Flt-1 7N.K2 [2(6-5) of Example 2] and KDR 7N [2(6-5) of Example 2] was examined using an enzyme immunoassay. Concentration of each soluble human VEGF receptor derivative protein to be adsorbed on a 96 well plate for EIA was fixed to 10 μg/ml (3-fold dilution), and the antibody concentration was fixed to 5 μg/ml.
As to B5, the binding result is “no binding (tested: 5 µg/ml antibody)”.

For B6, the binding result was “no binding (tested: 5 µg/ml antibody)”.

As to B7, the binding result was “no binding (tested: 5 µg/ml antibody)”.

In the case of B8, the binding result is “no binding (tested: 5 µg/ml antibody)”.

With B9, the binding result is listed as “no binding (tested: 5 µg/ml antibody)”.

Regarding B10, the binding result is reported as “no binding (tested: 5 µg/ml antibody)”.

For the next assay, the target named is T2, soluble human VEGF receptor Flt-1 7N (human, UniProt P17948 27-750).
T2 construct: range 1-750; Secreted from baculovirus-infected High Five insect cells and purified on heparin-Sepharose; also called Flt 7N; soluble human Flt-1 7N
T2 sequence (P17948 27-750 limits assumed, form in doubt): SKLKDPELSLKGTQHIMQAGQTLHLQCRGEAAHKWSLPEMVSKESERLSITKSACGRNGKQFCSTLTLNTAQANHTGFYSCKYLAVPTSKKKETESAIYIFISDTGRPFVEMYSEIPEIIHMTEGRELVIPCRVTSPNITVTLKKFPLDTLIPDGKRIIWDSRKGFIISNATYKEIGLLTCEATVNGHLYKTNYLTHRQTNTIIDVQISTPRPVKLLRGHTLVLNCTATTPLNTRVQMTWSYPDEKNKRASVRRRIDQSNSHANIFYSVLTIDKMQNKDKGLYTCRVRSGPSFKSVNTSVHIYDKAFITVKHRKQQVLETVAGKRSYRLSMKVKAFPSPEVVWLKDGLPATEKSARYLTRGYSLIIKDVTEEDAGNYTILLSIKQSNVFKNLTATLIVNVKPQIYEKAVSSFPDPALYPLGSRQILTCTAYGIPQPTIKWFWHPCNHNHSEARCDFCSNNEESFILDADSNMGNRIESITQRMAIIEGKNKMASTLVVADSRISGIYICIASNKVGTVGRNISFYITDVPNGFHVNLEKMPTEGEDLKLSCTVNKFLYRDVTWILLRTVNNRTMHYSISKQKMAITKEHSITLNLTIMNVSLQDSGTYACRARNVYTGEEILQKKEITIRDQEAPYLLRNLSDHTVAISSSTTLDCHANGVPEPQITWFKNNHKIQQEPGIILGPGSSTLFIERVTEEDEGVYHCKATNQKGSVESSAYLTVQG
Nature of the assay: purified antibody; inhibition of 125I-VEGF binding to coated Flt-1 7N. On the procedure: (§1) Methanol was dispensed in 100 μl portions into wells of a 96 well MultiScreen-IP Plate (manufactured by Millipore) to give hydrophilic nature to the PVDF membrane on the bottom of the plate. After washing with water, the soluble human VEGF receptor Flt-1 7N diluted with PBS to a concentration of 1.6 μg/ml was dispensed in 50 μl/well portions and then allowed to stand overnight at 4° C. for its adsorption. After washing, PBS containing 1% bovine serum albumin (BSA) is dispensed in 50 μl/well portions and the reaction was carried out at room temperature for 1 hour to block the remained active groups. After washing with PBS, each hybridoma culture supernatant or a purified monoclonal antibody diluted with 1% BSA-PBS containing 0.5 M NaCl (0.01 to 7.29 μg/ml) was dispensed in 50 μl/well portions and then 3 ng/ml of ¹²⁵I-labeled human VEGF (manufactured by Amersham) was dispensed in 50 μl/well portions, subsequently carrying out the reaction at room temperature for 1.5 hours. After washing with 0 05% Tween-PBS, the wells were dried at 50° C., and Microscinti-0 (manufactured by Packard) was dispensed in 30 μl/well portions to measure the radioactivity of the ¹²⁵I-labeled human VEGF linked to each well using Top Count (manufactured by Packard).
With B1, the IC50 is 2 µg/mL.

Consider B3, for which the IC50 was 1.1 µg/mL. Against the preceding molecule, the IC50 is about 1.8-fold lower.

The target of the next assay is T3, human VEGF receptor Flt-1 expressed on cells (human, UniProt P17948 27-1338).
T3 construct: whole, on cells; also called NIH3T3-Flt-1; human VEGF receptor Flt-1 expression cells
T3 sequence (P17948 27-1338): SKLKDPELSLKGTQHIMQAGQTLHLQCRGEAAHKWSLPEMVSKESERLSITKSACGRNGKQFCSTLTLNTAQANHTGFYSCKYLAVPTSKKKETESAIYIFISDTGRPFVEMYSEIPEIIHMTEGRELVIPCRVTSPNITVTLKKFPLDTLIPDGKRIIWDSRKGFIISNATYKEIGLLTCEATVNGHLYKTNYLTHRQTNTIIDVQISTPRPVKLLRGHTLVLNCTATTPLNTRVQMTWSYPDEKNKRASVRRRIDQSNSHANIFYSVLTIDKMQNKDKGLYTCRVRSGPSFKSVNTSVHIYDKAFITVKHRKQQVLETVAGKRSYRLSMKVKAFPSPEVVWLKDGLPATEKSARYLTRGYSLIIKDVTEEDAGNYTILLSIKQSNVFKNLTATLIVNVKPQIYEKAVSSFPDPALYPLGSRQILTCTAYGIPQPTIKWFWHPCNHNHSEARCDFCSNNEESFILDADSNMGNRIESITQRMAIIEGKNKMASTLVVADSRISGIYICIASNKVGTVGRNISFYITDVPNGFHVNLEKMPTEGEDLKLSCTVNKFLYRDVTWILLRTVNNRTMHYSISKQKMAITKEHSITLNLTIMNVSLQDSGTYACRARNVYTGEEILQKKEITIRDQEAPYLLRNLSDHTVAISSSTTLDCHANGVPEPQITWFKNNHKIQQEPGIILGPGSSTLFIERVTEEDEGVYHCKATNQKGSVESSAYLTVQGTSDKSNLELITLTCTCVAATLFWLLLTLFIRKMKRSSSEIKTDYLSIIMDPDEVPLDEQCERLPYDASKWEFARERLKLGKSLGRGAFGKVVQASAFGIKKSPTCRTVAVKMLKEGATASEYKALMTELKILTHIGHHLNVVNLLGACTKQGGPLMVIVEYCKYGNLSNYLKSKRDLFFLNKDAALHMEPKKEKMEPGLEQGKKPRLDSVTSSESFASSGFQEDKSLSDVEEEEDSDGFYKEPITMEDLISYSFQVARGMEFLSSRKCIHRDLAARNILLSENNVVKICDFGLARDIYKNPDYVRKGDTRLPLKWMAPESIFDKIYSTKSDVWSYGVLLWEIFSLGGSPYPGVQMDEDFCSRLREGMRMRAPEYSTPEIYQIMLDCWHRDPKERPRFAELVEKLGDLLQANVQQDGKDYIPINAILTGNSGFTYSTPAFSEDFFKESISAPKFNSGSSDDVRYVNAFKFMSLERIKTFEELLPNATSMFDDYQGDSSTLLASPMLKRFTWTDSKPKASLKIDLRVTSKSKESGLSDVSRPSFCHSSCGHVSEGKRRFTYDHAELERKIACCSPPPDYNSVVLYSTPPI
Nature of the assay: purified antibody; inhibition of 125I-VEGF binding to NIH3T3-Flt-1 cells. Here is the method: PBS containing 1% bovine serum albumin (BSA) was dispensed in 100 μl portions into wells of a 96 well MultiScreen-HV Plate (manufactured by Millipore), the reaction was carried out at room temperature for 1 hour to block the active groups in the wells and then NIH3T3-Flt-1 cells suspended in 1% BSA-PBS containing 0.05% NaN₃ were dispensed in 5×10⁴ cells/well portions. After washing with 1% BSA-PBS, a purified monoclonal antibody (0.01 to 7.29 μg/ml) was dispensed in 50 μl/well portions and then 3 ng/ml of ¹²⁵I-labeled human VEGF (manufactured by Amersham) was dispensed in 50 μl/well portions and the reaction was carried out under cooling for 2 hours. After washing with PBS, the wells were dried at 50° C., and Microscinti-0 (manufactured by Packard) was dispensed in 30 μl/well portions to measure the radioactivity of the ¹²⁵I-labeled human VEGF linked to each well using Top Count (manufactured by Packard).
Turning to B1, the IC50 is 0.041 µg/mL.

On to B3, for which the IC50 turned out to be 0.05 µg/mL.

For the next assay, the target named is T2, soluble human VEGF receptor Flt-1 7N. In words: hybridoma culture supernatant; inhibition of 125I-VEGF (3 ng/ml) binding to coated Flt-1 7N. Here is the method:
as §1
In the case of B1, the inhibition ratio was 66.3%.

As to B3, the inhibition ratio amounted to 83.1%.
